# Measured values reported in patent publication US20140294898A1 (published 2014).
# Positions of bridges follow the written chain, without caps; N, C: chain ends. Non-standard residues stand in square brackets, D forms with d. Bta = N[C@@H](Cc1csc2ccccc12)C(=O)O; NMeNle = CCCC[C@H](NC)C(=O)O; NMeS = CN[C@@H](CO)C(=O)O; NMeA = CN[C@@H](C)C(=O)O; Sar = CNCC(=O)O
# Biological target: T1, hPDL1(19-239)-TVMV-His (human, UniProt Q9NZQ7 19-239)
# T1 construct: The construct name says 19-239, the running text says amino acids 18-239; Expressed in HEK293T cells; also called PD-L1-His; PD-L1-TVMV-His
# Experiment: HTRF competition, PD-1-Ig (20 nM) binding to human PD-L1-His (10 nM)
# Description: (§1) All binding studies were performed in an HTRF assay buffer consisting of dPBS supplemented with 0.1% (w/v) bovine serum albumin and 0.05% (v/v) Tween-20. […] PD-L1 fusion proteins from either human, cynomologous macaques, or mouse were used. HTRF detection was achieved using europium crypate-labeled anti-Ig monoclonal antibody (1 nM final) and allophycocyanin (APC) labeled anti-His monoclonal antibody (20 nM final). Antibodies were diluted in HTRF detection buffer and 5 μl was dispensed on top of binding reaction. The reaction was allowed to equilibrate for 30 minutes and signal (665 nm/620 nm ratio) was obtained using an EnVision fluorometer. […]
# HTRF experiments were performed essentially as outlined supra. Variant macrocyclic peptides were created as outlined herein.
# T1 sequence (Q9NZQ7 other isoform, or with tags, fused parts or gaps limits assumed): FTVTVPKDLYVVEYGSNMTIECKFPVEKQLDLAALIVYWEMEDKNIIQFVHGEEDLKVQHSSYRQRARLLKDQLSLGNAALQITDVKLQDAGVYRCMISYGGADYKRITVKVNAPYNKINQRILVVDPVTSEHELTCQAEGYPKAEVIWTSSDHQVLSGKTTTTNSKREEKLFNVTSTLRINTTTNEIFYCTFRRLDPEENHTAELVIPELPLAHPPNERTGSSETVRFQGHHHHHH
row,IC50,Binder
1,7 nM,"FFXGDVFYGWYLCG (HELM PEPTIDE1{[O=C(C[*:3])[*:2]].F.[meF].[CCCC[C@@H](C(=O)[*:2])N(C)[*:1]].[Sar].D.V.[meF].Y.[Sar].W.Y.L.C.G.[am]}$PEPTIDE1,PEPTIDE1,1:R3-14:R3$$$V2.0; SMILES CCCC[C@H]1C(=O)N(C)CC(=O)N[C@@H](CC(=O)O)C(=O)N[C@@H](C(C)C)C(=O)N(C)[C@@H](Cc2ccccc2)C(=O)N[C@@H](Cc2ccc(O)cc2)C(=O)N(C)CC(=O)N[C@@H](Cc2c[nH]c3ccccc23)C(=O)N[C@@H](Cc2ccc(O)cc2)C(=O)N[C@@H](CC(C)C)C(=O)N[C@H](C(=O)NCC(N)=O)CSCC(=O)N[C@@H](Cc2ccccc2)C(=O)N(C)[C@@H](Cc2ccccc2)C(=O)N1C, macrocyclic peptide cyclized via the ClAc moiety with the downstream cysteine; parent of the Formula II series) [Compound No. 71]"

# Biological target: T1, hPDL1(19-239)-TVMV-His
# Experiment: as above
# Remark: another data set of the same source
# Description: as §1
# HTRF Experiments were performed essentially as outlined supra. Variant macrocyclic peptides were created as outlined herein.
row,IC50,Binder
1,24 nM,"FANPHLXWSWXXRCG (N-terminal chloroacetyl (ClAc) on residue 1 cyclized as thioether with Cys14; N-methyl-Ala (mAla) at 2; Dab (2,4-diaminobutyric acid, written X) at 7; N-methyl-norleucine (mNle, written X) at 11 and 12; C-terminal amide (NH2), macrocyclic peptide cyclized via the ClAc moiety with the downstream cysteine) [Compound No. 52]"
2,144 nM,"FANPHLGWSWSXRCG (HELM PEPTIDE1{[O=C(C[*:3])[*:2]].F.[meA].N.P.H.L.[Sar].W.S.W.[meS].[CCCC[C@@H](C(=O)[*:2])N(C)[*:1]].R.C.G.[am]}$PEPTIDE1,PEPTIDE1,1:R3-15:R3$$$V2.0; SMILES CCCC[C@H]1C(=O)N[C@@H](CCCNC(=N)N)C(=O)N[C@H](C(=O)NCC(N)=O)CSCC(=O)N[C@@H](Cc2ccccc2)C(=O)N(C)[C@@H](C)C(=O)N[C@@H](CC(N)=O)C(=O)N2CCC[C@H]2C(=O)N[C@@H](Cc2c[nH]cn2)C(=O)N[C@@H](CC(C)C)C(=O)N(C)CC(=O)N[C@@H](Cc2c[nH]c3ccccc23)C(=O)N[C@@H](CO)C(=O)N[C@@H](Cc2c[nH]c3ccccc23)C(=O)N(C)[C@@H](CO)C(=O)N1C, macrocyclic peptide cyclized via the ClAc moiety with the downstream cysteine) [Compound No. 66]"
3,43 nM,"FANPHLGWSWLXRCG (HELM PEPTIDE1{[O=C(C[*:3])[*:2]].F.[meA].N.P.H.L.[Sar].W.S.W.[meL].[CCCC[C@@H](C(=O)[*:2])N(C)[*:1]].R.C.G.[am]}$PEPTIDE1,PEPTIDE1,1:R3-15:R3$$$V2.0; SMILES CCCC[C@H]1C(=O)N[C@@H](CCCNC(=N)N)C(=O)N[C@H](C(=O)NCC(N)=O)CSCC(=O)N[C@@H](Cc2ccccc2)C(=O)N(C)[C@@H](C)C(=O)N[C@@H](CC(N)=O)C(=O)N2CCC[C@H]2C(=O)N[C@@H](Cc2c[nH]cn2)C(=O)N[C@@H](CC(C)C)C(=O)N(C)CC(=O)N[C@@H](Cc2c[nH]c3ccccc23)C(=O)N[C@@H](CO)C(=O)N[C@@H](Cc2c[nH]c3ccccc23)C(=O)N(C)[C@@H](CC(C)C)C(=O)N1C, macrocyclic peptide cyclized via the ClAc moiety with the downstream cysteine) [Compound No. 65]"
4,108 nM,"FANPHLGWSWFXRCG (HELM PEPTIDE1{[O=C(C[*:3])[*:2]].F.[meA].N.P.H.L.[Sar].W.S.W.[meF].[CCCC[C@@H](C(=O)[*:2])N(C)[*:1]].R.C.G.[am]}$PEPTIDE1,PEPTIDE1,1:R3-15:R3$$$V2.0; SMILES CCCC[C@H]1C(=O)N[C@@H](CCCNC(=N)N)C(=O)N[C@H](C(=O)NCC(N)=O)CSCC(=O)N[C@@H](Cc2ccccc2)C(=O)N(C)[C@@H](C)C(=O)N[C@@H](CC(N)=O)C(=O)N2CCC[C@H]2C(=O)N[C@@H](Cc2c[nH]cn2)C(=O)N[C@@H](CC(C)C)C(=O)N(C)CC(=O)N[C@@H](Cc2c[nH]c3ccccc23)C(=O)N[C@@H](CO)C(=O)N[C@@H](Cc2c[nH]c3ccccc23)C(=O)N(C)[C@@H](Cc2ccccc2)C(=O)N1C, macrocyclic peptide cyclized via the ClAc moiety with the downstream cysteine) [Compound No. 67]"
5,77 nM,"FANPHLGWSWFXRCG (HELM PEPTIDE1{[O=C(C[*:3])[*:2]].F.[meA].N.P.H.L.[Sar].W.S.W.F.[CCCC[C@@H](C(=O)[*:2])N(C)[*:1]].R.C.G.[am]}$PEPTIDE1,PEPTIDE1,1:R3-15:R3$$$V2.0; SMILES CCCC[C@H]1C(=O)N[C@@H](CCCNC(=N)N)C(=O)N[C@H](C(=O)NCC(N)=O)CSCC(=O)N[C@@H](Cc2ccccc2)C(=O)N(C)[C@@H](C)C(=O)N[C@@H](CC(N)=O)C(=O)N2CCC[C@H]2C(=O)N[C@@H](Cc2c[nH]cn2)C(=O)N[C@@H](CC(C)C)C(=O)N(C)CC(=O)N[C@@H](Cc2c[nH]c3ccccc23)C(=O)N[C@@H](CO)C(=O)N[C@@H](Cc2c[nH]c3ccccc23)C(=O)N[C@@H](Cc2ccccc2)C(=O)N1C, macrocyclic peptide cyclized via the ClAc moiety with the downstream cysteine) [Compound No. 69]"
6,13 nM,"{CH2CO}-F[NMeA]NPHL[NMeS]WSW[NMeNle][NMeNle]RCG-NH2 (thioether N-14; SMILES CCCC[C@H]1C(=O)N(C)[C@@H](CCCC)C(=O)N[C@@H](CCCNC(=N)N)C(=O)N[C@H](C(=O)NCC(N)=O)CSCC(=O)N[C@@H](Cc2ccccc2)C(=O)N(C)[C@@H](C)C(=O)N[C@@H](CC(N)=O)C(=O)N2CCC[C@H]2C(=O)N[C@@H](Cc2c[nH]cn2)C(=O)N[C@@H](CC(C)C)C(=O)N(C)[C@@H](CO)C(=O)N[C@@H](Cc2c[nH]c3ccccc23)C(=O)N[C@@H](CO)C(=O)N[C@@H](Cc2c[nH]c3ccccc23)C(=O)N1C, macrocyclic peptide cyclized via the ClAc moiety with the downstream cysteine) [Compound No. 56]"
7,475 nM,"{CH2CO}-F[NMeA]NPHL[Sar]WSI[NMeNle][NMeNle]RCG-NH2 (thioether N-14; SMILES CCCC[C@H]1C(=O)N(C)[C@@H](CCCC)C(=O)N[C@@H](CCCNC(=N)N)C(=O)N[C@H](C(=O)NCC(N)=O)CSCC(=O)N[C@@H](Cc2ccccc2)C(=O)N(C)[C@@H](C)C(=O)N[C@@H](CC(N)=O)C(=O)N2CCC[C@H]2C(=O)N[C@@H](Cc2c[nH]cn2)C(=O)N[C@@H](CC(C)C)C(=O)N(C)CC(=O)N[C@@H](Cc2c[nH]c3ccccc23)C(=O)N[C@@H](CO)C(=O)N[C@@H]([C@@H](C)CC)C(=O)N1C, macrocyclic peptide cyclized via the ClAc moiety with the downstream cysteine) [Compound No. 62]"
8,3660 nM,"{CH2CO}-F[NMeA]NPHL[Sar]WSL[NMeNle][NMeNle]RCG-NH2 (thioether N-14; SMILES CCCC[C@H]1C(=O)N(C)[C@@H](CCCC)C(=O)N[C@@H](CCCNC(=N)N)C(=O)N[C@H](C(=O)NCC(N)=O)CSCC(=O)N[C@@H](Cc2ccccc2)C(=O)N(C)[C@@H](C)C(=O)N[C@@H](CC(N)=O)C(=O)N2CCC[C@H]2C(=O)N[C@@H](Cc2c[nH]cn2)C(=O)N[C@@H](CC(C)C)C(=O)N(C)CC(=O)N[C@@H](Cc2c[nH]c3ccccc23)C(=O)N[C@@H](CO)C(=O)N[C@@H](CC(C)C)C(=O)N1C, macrocyclic peptide cyclized via the ClAc moiety with the downstream cysteine) [Compound No. 63]"
9,31 nM,"{CH2CO}-F[NMeA]NPHL[Sar]WSM[NMeNle][NMeNle]RCG-NH2 (thioether N-14; SMILES CCCC[C@H]1C(=O)N(C)[C@@H](CCCC)C(=O)N[C@@H](CCCNC(=N)N)C(=O)N[C@H](C(=O)NCC(N)=O)CSCC(=O)N[C@@H](Cc2ccccc2)C(=O)N(C)[C@@H](C)C(=O)N[C@@H](CC(N)=O)C(=O)N2CCC[C@H]2C(=O)N[C@@H](Cc2c[nH]cn2)C(=O)N[C@@H](CC(C)C)C(=O)N(C)CC(=O)N[C@@H](Cc2c[nH]c3ccccc23)C(=O)N[C@@H](CO)C(=O)N[C@@H](CCSC)C(=O)N1C, macrocyclic peptide cyclized via the ClAc moiety with the downstream cysteine) [Compound No. 61]"
10,7 nM,"{CH2CO}-F[NMeA]NPHL[Sar]WS[Bta][NMeNle][NMeNle]RCG-NH2 (thioether N-14; SMILES CCCC[C@H]1C(=O)N(C)[C@@H](CCCC)C(=O)N[C@@H](CCCNC(=N)N)C(=O)N[C@H](C(=O)NCC(N)=O)CSCC(=O)N[C@@H](Cc2ccccc2)C(=O)N(C)[C@@H](C)C(=O)N[C@@H](CC(N)=O)C(=O)N2CCC[C@H]2C(=O)N[C@@H](Cc2c[nH]cn2)C(=O)N[C@@H](CC(C)C)C(=O)N(C)CC(=O)N[C@@H](Cc2c[nH]c3ccccc23)C(=O)N[C@@H](CO)C(=O)N[C@@H](Cc2csc3ccccc23)C(=O)N1C, macrocyclic peptide cyclized via the ClAc moiety with the downstream cysteine) [Compound No. 64]"
11,2060 nM,"FANPHLGWSWSXRCG (HELM PEPTIDE1{[O=C(C[*:3])[*:2]].F.[meA].N.P.H.L.[Sar].W.S.W.S.[CCCC[C@@H](C(=O)[*:2])N(C)[*:1]].R.C.G.[am]}$PEPTIDE1,PEPTIDE1,1:R3-15:R3$$$V2.0; SMILES CCCC[C@H]1C(=O)N[C@@H](CCCNC(=N)N)C(=O)N[C@H](C(=O)NCC(N)=O)CSCC(=O)N[C@@H](Cc2ccccc2)C(=O)N(C)[C@@H](C)C(=O)N[C@@H](CC(N)=O)C(=O)N2CCC[C@H]2C(=O)N[C@@H](Cc2c[nH]cn2)C(=O)N[C@@H](CC(C)C)C(=O)N(C)CC(=O)N[C@@H](Cc2c[nH]c3ccccc23)C(=O)N[C@@H](CO)C(=O)N[C@@H](Cc2c[nH]c3ccccc23)C(=O)N[C@@H](CO)C(=O)N1C, macrocyclic peptide cyclized via the ClAc moiety with the downstream cysteine) [Compound No. 68]"
12,43 nM,"{CH2CO}-F[NMeA]NPHL[Sar]WAW[NMeNle][NMeNle]ACG-NH2 (thioether N-14; SMILES CCCC[C@H]1C(=O)N(C)[C@@H](CCCC)C(=O)N[C@@H](C)C(=O)N[C@H](C(=O)NCC(N)=O)CSCC(=O)N[C@@H](Cc2ccccc2)C(=O)N(C)[C@@H](C)C(=O)N[C@@H](CC(N)=O)C(=O)N2CCC[C@H]2C(=O)N[C@@H](Cc2c[nH]cn2)C(=O)N[C@@H](CC(C)C)C(=O)N(C)CC(=O)N[C@@H](Cc2c[nH]c3ccccc23)C(=O)N[C@@H](C)C(=O)N[C@@H](Cc2c[nH]c3ccccc23)C(=O)N1C, macrocyclic peptide cyclized via the ClAc moiety with the downstream cysteine) [Compound No. 60]"
